For assay [1], the target named is Flag-HIF-1α (mouse HIF-1α in pCVM-Flag vector, expressed in transfected cells) (mouse) (UniProt Q61221). The experiment in a line: cell-based or functional assay.
In assay [2] the target is T1, Flag-HIF-1α (mouse HIF-1α in pCVM-Flag vector, expressed in transfected cells) (mouse, UniProt Q61221-2 1-822, limits assumed).
T1 construct: not shown: Flag tag
Description: co-expression in 293T cells, immunoprecipitation of Flag-HIF-1α with M2 beads, immunoblot. On the procedure:
Immunoprecipitation and Western blotting. For immunoprecipitation, cells were harvested in lysis buffer containing 50 mM Tris-HCl pH7.5, 150 mM NaCl, 0.5% NP40, 1 mM EDTA, 1 mM sodium orthovanadate, 1mM PMSF, 10 μg/ml aprotinin, 10 μg/ml leupeptine and 10 μg/ml pepstatin A. To immunoprecipitate Flag-tagged proteins, lysates were incubated with M2 beads (Sigma) overnight, the beads were washed 3 times, and precipitated proteins were eluted with 1 mg/ml of flag peptide. To immunoprecipitate endogenous proteins, cells lysates were incubated with 3 μg of primary antibodies overnight, and followed by incubation with Protein G beads for 1 h. After washing 3 times, the precipitated proteins were eluted with SDS loading buffer. To extract whole cell lysate, cells were harvested using RIPA buffer (50 mM Tris-HCl (pH7.5), 150 mM NaCl, 1% Triton X-100, 0.1% SDS, 0.1% Na-deoxycholate, 1 mM EDTA, 1 mM sodium orthovanadate, 1 mM PMSF, 10 μg/ml aprotinin, and 10 μg/ml leupeptine). Cell lysates were subjected to SDS-PAGE and proteins transferred onto a nitrocellulose membrane (Osmonics Inc.). The membrane was probed with primary antibodies followed by a secondary antibody conjugated with fluorescent dye and detected by the Odyssey detecting system ([…]).

Sequence of Flag-HIF-1α (mouse HIF-1α in pCVM-Flag vector, expressed in transfected cells) (mouse) (Q61221 other isoform, or with tags, fused parts or gaps limits assumed): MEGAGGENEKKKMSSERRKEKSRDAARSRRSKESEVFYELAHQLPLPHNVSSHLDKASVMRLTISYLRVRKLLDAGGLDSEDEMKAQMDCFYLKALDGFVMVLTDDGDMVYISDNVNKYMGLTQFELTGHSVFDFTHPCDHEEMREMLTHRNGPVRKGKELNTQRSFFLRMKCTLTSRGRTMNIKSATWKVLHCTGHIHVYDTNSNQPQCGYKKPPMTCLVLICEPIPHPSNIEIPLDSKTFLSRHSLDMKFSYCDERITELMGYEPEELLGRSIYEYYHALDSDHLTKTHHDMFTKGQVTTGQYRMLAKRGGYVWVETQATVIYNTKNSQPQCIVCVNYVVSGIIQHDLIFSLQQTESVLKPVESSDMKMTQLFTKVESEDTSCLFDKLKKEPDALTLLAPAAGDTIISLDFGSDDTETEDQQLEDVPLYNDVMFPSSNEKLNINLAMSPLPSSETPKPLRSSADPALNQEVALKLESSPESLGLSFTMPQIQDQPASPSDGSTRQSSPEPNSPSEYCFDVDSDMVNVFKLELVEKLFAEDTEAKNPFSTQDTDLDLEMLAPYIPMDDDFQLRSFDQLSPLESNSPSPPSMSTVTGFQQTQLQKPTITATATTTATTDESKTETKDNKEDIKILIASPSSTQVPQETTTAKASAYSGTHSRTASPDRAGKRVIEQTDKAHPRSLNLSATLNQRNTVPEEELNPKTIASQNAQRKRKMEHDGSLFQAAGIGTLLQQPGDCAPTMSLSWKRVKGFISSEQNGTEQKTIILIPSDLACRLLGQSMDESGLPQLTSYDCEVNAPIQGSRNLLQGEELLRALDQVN
T1 sequence (Q61221 other isoform, or with tags, fused parts or gaps limits assumed): as above

Consider “exogenous FoxA2 expressed in TRAMP-C cells (luciferase assay of FIG. 3A)”, for which the HRE-Luc luciferase activity in TRAMP-C cells in assay [1] was determined as 6 fold.

B1: HA-FoxA1 (HA-tagged rat FoxA1 in pcDNA3) (other, UniProt P23512 1-466, looked up)
chain: MLGTVKMEGHESNDWNSYYADTQEAYSSVPVSNMNSGLGSMNSMNTYMTMNTMTTSGNMTPASFNMSYANPGLGAGLSPGAVAGMPGGSAGAMNSMTAAGVTAMGAALSPGGMGSMGAQPAASMNGLGPYAAAMNPCMSPMAYAPSNLGRSRAGGGGDAKTFKRSYPHAKPPYSYISLITMAIQQAPSKMLTLSEIYQWIMDLFPYYRQNQQRWQNSIRHSLSFNACFVKVARSPDKPGKGSYWTLHPDSGNMFENGCYLRRQKRFKCEKQPGAGGGSGGGGSKGVPENRKDPSGPVNPSAESPIHRGVHGKASQLEGAPAPGPAASPQTLDHSGATATGGGSELKSPASSSAPPISSGPGGWICTPLSPTWLAPHESQLHLKGAPHYSFNHPFSINNLMSSSEQQHKLDFKAYEQALQYSPYGATLPASLPLGGASVATRSPIEPSALEPAYYQGVYSRPVLNTS
notes: not shown: HA tag
B1: in assay [2], the binding result was “no binding”.

(Values after US20110301095A1 (SANFORD BURNHAM MEDICAL RESEARCH INSTITUTE CALIFORNIA, published 2011).)
